Reference: patent US20240025959A1 (UNIVERSITY OF SOUTHERN CALIFORNIA, published 2024)

T1: WIPI1 (human, UniProt Q5MNZ9 1-446)
T1 sequence (looked up): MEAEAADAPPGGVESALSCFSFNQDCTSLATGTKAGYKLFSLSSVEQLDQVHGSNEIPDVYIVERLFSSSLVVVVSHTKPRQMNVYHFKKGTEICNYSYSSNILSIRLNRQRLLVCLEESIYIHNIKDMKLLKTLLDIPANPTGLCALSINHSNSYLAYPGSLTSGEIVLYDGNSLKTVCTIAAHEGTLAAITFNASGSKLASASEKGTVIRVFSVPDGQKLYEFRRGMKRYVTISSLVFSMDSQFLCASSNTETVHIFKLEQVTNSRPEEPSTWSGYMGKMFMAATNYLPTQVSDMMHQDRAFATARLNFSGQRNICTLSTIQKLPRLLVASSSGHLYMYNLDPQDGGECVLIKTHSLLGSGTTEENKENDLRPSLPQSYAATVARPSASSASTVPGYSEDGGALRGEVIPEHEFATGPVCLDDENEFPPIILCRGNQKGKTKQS

T2: ATG9A (human) (human, UniProt Q7Z3C6 1-839)
T2 construct: Transmembrane protein; co-IP from RIPA lysates; Tagged and endogenous human forms kept under one id; also called Flag-ATG9A; HA-ATG9A
T2 sequence (looked up): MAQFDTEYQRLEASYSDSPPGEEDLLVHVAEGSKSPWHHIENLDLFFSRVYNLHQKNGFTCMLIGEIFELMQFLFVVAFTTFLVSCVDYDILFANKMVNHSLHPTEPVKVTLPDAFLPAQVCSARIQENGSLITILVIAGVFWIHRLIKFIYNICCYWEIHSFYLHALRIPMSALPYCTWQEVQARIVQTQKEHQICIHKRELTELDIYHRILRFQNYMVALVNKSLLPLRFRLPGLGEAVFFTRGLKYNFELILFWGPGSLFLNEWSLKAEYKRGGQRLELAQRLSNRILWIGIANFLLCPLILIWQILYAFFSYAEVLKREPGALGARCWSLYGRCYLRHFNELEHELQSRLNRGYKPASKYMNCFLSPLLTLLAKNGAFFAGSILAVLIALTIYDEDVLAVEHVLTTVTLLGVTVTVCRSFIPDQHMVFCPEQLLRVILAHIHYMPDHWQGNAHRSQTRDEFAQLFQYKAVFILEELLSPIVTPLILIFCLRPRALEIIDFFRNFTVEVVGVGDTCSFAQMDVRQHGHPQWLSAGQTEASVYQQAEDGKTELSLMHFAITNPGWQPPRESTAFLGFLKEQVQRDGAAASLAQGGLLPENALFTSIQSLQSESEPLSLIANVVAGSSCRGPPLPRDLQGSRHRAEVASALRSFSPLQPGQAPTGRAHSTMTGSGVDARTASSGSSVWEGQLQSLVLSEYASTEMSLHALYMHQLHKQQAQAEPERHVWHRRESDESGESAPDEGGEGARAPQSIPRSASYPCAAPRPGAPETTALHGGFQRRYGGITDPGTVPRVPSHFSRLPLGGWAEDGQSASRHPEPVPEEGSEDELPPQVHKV

T3: ATG13 (human, UniProt O75143 1-517, limits assumed)
T3 sequence (looked up): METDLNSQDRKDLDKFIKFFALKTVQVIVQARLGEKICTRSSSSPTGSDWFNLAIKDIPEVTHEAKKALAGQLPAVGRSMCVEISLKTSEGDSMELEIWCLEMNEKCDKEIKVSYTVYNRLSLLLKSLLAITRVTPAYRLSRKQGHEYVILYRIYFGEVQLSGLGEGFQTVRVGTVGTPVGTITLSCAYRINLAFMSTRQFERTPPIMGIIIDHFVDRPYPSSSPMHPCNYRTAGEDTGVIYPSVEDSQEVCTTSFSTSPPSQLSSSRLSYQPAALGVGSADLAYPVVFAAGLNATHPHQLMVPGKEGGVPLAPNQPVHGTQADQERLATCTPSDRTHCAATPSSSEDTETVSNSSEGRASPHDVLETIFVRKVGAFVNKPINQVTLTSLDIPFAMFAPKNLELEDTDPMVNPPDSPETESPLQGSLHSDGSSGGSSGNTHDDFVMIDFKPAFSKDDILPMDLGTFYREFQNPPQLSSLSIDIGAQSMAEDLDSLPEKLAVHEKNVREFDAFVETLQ

T4: ULK1 (human, UniProt O75385 1-1050)
T4 construct: also called HA-ULK1
T4 sequence (looked up): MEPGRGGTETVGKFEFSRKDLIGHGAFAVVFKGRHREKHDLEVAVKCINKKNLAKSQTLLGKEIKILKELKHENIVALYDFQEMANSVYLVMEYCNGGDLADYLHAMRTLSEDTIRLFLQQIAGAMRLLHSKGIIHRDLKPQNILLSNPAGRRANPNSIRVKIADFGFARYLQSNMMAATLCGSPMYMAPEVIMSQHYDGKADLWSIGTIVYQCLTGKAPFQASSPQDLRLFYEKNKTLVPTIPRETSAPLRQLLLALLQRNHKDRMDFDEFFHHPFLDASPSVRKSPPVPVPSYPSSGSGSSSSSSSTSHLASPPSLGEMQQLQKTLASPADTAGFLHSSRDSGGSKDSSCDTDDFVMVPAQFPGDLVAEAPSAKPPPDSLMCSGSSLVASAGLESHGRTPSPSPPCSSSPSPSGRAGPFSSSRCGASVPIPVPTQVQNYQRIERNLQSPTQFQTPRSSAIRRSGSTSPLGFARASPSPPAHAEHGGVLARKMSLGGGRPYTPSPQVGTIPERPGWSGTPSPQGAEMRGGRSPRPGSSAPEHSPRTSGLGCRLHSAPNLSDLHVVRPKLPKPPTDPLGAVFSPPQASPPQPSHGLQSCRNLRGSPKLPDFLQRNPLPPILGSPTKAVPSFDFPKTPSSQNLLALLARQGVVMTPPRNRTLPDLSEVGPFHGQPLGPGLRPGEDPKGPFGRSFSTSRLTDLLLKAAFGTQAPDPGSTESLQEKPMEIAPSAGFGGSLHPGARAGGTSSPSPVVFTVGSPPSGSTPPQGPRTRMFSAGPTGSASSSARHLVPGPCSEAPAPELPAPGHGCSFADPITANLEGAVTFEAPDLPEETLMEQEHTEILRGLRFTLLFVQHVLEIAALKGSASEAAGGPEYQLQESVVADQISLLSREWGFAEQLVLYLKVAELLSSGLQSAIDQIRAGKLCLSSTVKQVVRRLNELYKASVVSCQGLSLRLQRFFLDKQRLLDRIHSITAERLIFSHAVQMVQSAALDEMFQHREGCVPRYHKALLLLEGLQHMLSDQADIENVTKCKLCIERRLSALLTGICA

B1: Beclin 2 (human, full length) (other)
chain: MSSIRFLCQRCHQALKLSGSSESRSLPAAPAPTSGQAEPGDTREPGVTTREVTDAEEQQDGASSRSPPGDGSVSKGHANIFTLLGELGAMHMLSSIQKAAGDIFDIVSGQAVVDHPLCEECTDSLLEQLDIQLALTEADSQNYQRCLETGELATSEDEAAALRAELRDLELEEARLVQELEDVDRNNARAAADLQAAQAEAAELDQQERQHYRDYSALKRQQLELLDQLGNVENQLQYARVQRDRLKEINCFTATFEIWVEGPLGVINNFRLGRLPTVRVGWNEINTAWGQAALLLLTLANTIGLQFQRYRLIPCGNHSYLKSLTDDRTELPLFCYGGQDVFLNNKYDRAMVAFLDCMQQFKEEAEKGELGLSLPYGIQVETGLMEDVGGRGECYSIRTHLNTQELWTKALKFMLINFKWSLIWVASRYQK
notes: All tagged and endogenous human forms are kept under this one id; the form used is named under assay; also called BECN2; Flag-Beclin 2

How the values were obtained:
[1] = target: B1; experiment: co-IP with anti-Flag beads and immunoblot; 293T cells co-transfected with Flag-Beclin 2 and an HA-tagged plasmid (FIG. 8A)
Procedure: (§1) The secondary antibody (Veriblot for IP detection reagent HRP) that only recognized native IgG but not denatured IgG was applied for immunoblotting of proteins in immunoprecipitates. For immunoprecipitation of Flag-tagged proteins, cell lysates were incubated with anti-Flag beads (Sigma) at 4° C. overnight. The beads were washed four times with RIPA lysis buffer, and immunoprecipitates were eluted with 2×SDS loading buffer. Immunoblotting was performed by loading the samples on SDS-PAGE gels, conducting electrophoresis, transferring the samples to PVDF membranes (Bio-Rad), and then incubating the membranes with the indicated antibodies. For all immunoblots, the LumiGLO Chemiluminescent Substrate System from KPL (Gaithersburg, MD) was used for protein detection.

[2] = target: T1, WIPI1; experiment: endogenous co-IP; 293T cell lysates immunoprecipitated with antibodies against each protein, immunoblot (FIG. 9D)
Procedure: as §1

[3] = target: T2, ATG9A (human); experiment: co-IP with anti-Flag beads and immunoblot; 293T cells co-transfected with HA-Beclin 2 and a Flag-tagged plasmid (FIG. 10A)
[4] = target: T3, ATG13; experiment: co-IP and immunoblot in 293T cells, as summed up in the discussion
[5] = target: T5, FIP200 (human, UniProt Q8TDY2 1-1594); experiment: as above
T5 construct: also called Flag-FIP200; hFIP200
T5 sequence (Q8TDY2 whole entry): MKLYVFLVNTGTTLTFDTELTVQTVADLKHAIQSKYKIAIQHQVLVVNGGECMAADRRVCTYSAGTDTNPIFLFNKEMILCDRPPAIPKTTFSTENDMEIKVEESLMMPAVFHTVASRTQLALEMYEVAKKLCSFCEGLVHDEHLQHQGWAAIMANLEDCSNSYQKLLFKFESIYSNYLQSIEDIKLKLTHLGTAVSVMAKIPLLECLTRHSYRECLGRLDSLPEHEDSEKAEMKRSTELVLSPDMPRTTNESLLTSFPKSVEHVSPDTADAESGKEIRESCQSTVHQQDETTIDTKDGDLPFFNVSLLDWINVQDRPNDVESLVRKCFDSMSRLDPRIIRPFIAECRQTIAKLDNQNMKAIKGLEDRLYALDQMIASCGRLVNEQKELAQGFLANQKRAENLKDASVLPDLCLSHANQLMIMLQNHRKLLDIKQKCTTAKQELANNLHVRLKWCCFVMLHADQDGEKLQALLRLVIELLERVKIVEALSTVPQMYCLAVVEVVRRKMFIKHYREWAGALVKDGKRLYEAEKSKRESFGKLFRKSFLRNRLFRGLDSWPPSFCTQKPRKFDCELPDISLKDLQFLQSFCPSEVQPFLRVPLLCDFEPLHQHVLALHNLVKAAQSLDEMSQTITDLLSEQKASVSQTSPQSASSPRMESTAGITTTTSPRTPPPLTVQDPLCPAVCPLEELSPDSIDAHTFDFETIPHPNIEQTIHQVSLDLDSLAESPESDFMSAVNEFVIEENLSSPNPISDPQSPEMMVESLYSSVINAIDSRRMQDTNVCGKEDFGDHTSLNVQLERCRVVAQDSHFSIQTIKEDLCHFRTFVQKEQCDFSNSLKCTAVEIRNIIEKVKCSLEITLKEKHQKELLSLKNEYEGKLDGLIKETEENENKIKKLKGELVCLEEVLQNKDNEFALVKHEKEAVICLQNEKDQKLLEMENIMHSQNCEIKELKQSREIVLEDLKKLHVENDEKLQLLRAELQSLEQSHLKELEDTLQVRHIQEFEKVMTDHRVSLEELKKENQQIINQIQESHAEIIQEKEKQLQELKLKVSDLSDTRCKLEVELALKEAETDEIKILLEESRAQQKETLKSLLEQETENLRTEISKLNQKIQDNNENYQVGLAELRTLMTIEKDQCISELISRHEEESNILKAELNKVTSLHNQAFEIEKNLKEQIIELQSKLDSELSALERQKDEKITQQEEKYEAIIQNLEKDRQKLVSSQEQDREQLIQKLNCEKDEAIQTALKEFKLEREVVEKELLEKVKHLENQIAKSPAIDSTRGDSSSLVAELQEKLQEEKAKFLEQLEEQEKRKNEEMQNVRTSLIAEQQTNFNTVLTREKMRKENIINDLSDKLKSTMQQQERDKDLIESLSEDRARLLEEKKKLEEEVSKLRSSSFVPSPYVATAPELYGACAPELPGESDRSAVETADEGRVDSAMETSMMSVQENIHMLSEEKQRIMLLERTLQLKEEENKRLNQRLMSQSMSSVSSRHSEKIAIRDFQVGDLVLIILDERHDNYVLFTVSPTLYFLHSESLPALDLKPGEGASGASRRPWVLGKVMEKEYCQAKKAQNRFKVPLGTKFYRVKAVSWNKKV

[6] = target: ERK5 (UniProt Q13164 1-816); experiment: co-IP with anti-Flag beads and immunoblot; 293T cells co-transfected with Flag-Beclin 2 and an HA-tagged plasmid (FIG. 8A)
ERK5, sequence (Q13164 whole entry): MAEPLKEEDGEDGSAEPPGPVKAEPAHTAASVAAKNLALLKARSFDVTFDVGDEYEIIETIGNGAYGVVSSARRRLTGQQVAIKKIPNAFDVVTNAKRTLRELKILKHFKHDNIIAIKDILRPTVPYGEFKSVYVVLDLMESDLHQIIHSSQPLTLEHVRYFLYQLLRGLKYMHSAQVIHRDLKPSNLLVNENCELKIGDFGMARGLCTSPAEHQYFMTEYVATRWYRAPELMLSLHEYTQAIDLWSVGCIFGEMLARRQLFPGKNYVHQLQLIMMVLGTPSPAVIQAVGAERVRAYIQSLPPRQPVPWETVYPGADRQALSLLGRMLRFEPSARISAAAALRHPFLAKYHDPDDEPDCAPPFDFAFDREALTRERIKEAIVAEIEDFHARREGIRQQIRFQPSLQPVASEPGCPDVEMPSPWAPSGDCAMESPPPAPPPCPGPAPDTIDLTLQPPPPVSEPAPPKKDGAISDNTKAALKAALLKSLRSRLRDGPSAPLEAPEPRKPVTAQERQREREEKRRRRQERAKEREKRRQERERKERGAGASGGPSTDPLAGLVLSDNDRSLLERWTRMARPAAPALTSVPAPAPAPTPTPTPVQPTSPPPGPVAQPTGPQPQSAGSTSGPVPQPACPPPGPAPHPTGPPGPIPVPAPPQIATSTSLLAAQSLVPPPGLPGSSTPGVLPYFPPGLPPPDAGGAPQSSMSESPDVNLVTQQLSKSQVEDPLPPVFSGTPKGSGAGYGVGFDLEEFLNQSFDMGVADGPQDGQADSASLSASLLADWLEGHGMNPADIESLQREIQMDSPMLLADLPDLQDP
Procedure: as §1

[7] = target: T4, ULK1; experiment: co-IP with anti-Flag beads and immunoblot; 293T cells co-transfected with Flag-Beclin 2 and HA-ULK1, complete or starvation medium (FIG. 10B)
Procedure: as §1

binding result [1]	binding result [2]	binding result [3]	binding result [4]	binding result [5]	binding result [6]	binding result [7]	Binder
no binding							ERK1 (enzyme, UniProt P27361 1-379, looked up, also called Mapk3) MAAAAAQGGGGGEPRRTEGVGPGVPGEVEMVKGQPFDVGPRYTQLQYIGEGAYGMVSSAYDHVRKTRVAIKKISPFEHQTYCQRTLREIQILLRFRHENVIGIRDILRASTLEAMRDVYIVQDLMETDLYKLLKSQQLSNDHICYFLYQILRGLKYIHSANVLHRDLKPSNLLINTTCDLKICDFGLARIADPEHDHTGFLTEYVATRWYRAPEIMLNSKGYTKSIDIWSVGCILAEMLSNRPIFPGKHYLDQLNHILGILGSPSQEDLNCIINMKARNYLQSLPSKTKVAWAKLFPKSDSKALDLLDRMLTFNPNKRITVEEALAHPYLEQYYDPTDEPVAEEPFTFAMELDDLPKERLKELIFQETARFQPGVLEAP
	binds	binds	no binding	no binding	no binding	binds	B1
